The results in this text go back to publication PMC4045321 (2014).

The data set deals with the molecule itself. Briefly: size exclusion chromatography. (SEC sorts molecules by how far they enter the pores of the column.)

B1: eIF2Bα (protein)
chain: MDDKELIEYFKSQMKEDPDMASAVAAIRTLLEFLKRDKGETIQGLRANLTSAIETLCGVDSSVAVSSGGELFLRFISLASLEYSDYSKCKKIMIERGELFLRRISLSRNKIADLCHTFIKDGATILTHAYSRVVLRVLEAAVAAKKRFSVYVTESQPDLSGKKMAKALCHLNVPVTVVLDAAVGYIMEKADLVIVGAEGVVENGGIINKIGTNQMAVCAKAQNKPFYVVAESFKFVRLFPLNQQDVPDKFKYKADTLKVAQTGQDLKEEHPWVDYTAPSLITLLFTDLGVLTPSAVSDELIKLYL
The protein B1 came in with a Kd below 1 nM.

As a reminder, the Kd is the concentration at which binding is half-saturated.
